For one substance, stoichiometry N results are on record in paper doi:10.1101/2022.03.31.486616.

In this assay the target is E. cloacae Cap2 (C109A/C548A), catalytically dead (E. cloacae). The assay can be described thus: cryo-EM structure.

Consider “E. cloacae Cap2 (C109A/C548A), catalytically dead (enzyme)”, for which the stoichiometry N (in general, the number of molecules, sites or subunits per partner or assembly) is 2.
